Numbered stars: 1 amine (or outer) side, 2 acyl side, 3 side chain; on linkers, the order of the positions; unused ones are H or OH. Square brackets hold non-standard residues; d marks the D form. Side chains are listed from the residue outwards. Ends that are not written are not given here. * marks the point of attachment. C20 diacid = O=C(O)CCCCCCCCCCCCCCCCCCC(=O)*; γGlu = O=C(O)[C@H](CCC(=O)[*:2])N[*:1]; AEEA = NCCOCCOCC(=O)O; Aib = CC(C)(N)C(=O)O
Biological target: T1, human gastric inhibitory peptide receptor (hGIPR) (Homo sapiens, UniProt P48546)
T1 construct: expressed in transfected cells; host or cells: HEK293
T1 sequence (P48546 22-466): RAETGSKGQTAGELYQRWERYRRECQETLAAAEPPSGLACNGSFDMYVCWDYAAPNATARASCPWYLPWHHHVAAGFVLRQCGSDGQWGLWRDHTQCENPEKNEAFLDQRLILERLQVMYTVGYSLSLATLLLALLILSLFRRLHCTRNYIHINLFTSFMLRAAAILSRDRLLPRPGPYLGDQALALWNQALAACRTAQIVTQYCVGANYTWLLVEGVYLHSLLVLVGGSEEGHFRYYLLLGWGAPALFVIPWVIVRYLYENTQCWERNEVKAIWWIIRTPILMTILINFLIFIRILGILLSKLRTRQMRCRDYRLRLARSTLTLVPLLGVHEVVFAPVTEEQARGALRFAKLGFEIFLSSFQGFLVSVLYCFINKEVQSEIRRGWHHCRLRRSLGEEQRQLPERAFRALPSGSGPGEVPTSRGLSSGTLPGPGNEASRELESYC
Assay: cAMP pharmacological functional assay in presence of 0.1% casein, hGIPR
Type: cell-based
Conditions: ratio of hGIPR to hGLP1R cAMP EC50 ratios
Experimental: Each receptor over-expressing cell line (20 μl) is treated with the test peptide in DMEM (Gibco Cat #31053) supplemented with 0.1% Casein (Sigma Cat #C4765), 250 μM IBMX, 1× GlutaMAX™ (Gibco Cat #35050), and 20 mM HEPES (HyClone Cat #SH30237.01) in a 20 μl assay volume. […] EC50 is the concentration of compound causing half-maximal simulation in a dose response curve. A relative EC50 value is derived by non-linear regression analysis using the percent maximal response vs. the concentration of peptide added, fitted to a four-parameter logistic equation.
Intracellular cAMP levels are determined by extrapolation using a standard curve. Dose response curves of compounds are plotted as the percentage of stimulation normalized to minimum (buffer only) and maximum (maximum concentration of each control ligand) values and analyzed using a four parameter non-linear regression fit with a variable slope (Genedata Screener 13). EC50 is the concentration of compound causing half-maximal simulation in a dose response curve.
EC50 is the concentration of compound causing half-maximal simulation in a dose response curve.

Substance | [hGIPR/hGLP1R] EC50 Ratio
Y-Aib-EGT-αMeF(2F)-TSDHSI-αMeL-LDEK((2-[2-(2-Amino-ethoxy)-ethoxy]-acetyl)2-CO—(CH2)18—CO2H)AQ-Aib-TFI-(D-Glu)-YLIEGGPSSGAPPPS-NH2 (YXEGTXTSDHSIXLDEKAQXTFIXYLIEGGPSSGAPPPS; Aib, αMeF(2F), αMeL, D-Glu; lipidated K; amide; (2)..(2) Xaa at position 2 is Aib; (6)..(6) Xaa at position 6 is alpha-methyl-Phe(2F); (13)..(13) Xaa at position 13 is alpha-methyl-Leu; MOD_RES (17)..(17) Lys at position 17 is chemically modified by conjugation of the epsilon-amino group of the Lys side chain with (2-[2-(2-amino-ethoxy)-ethoxy]-acetyl)2-CO-(CH2)18-CO2H; (20)..(20) Xaa at position 20 is Aib; (24)..(24) Xaa at position 24 is D-Gl) [Peptide 174] | 4.99
Y-Aib-EGT-αMeF(2F)-TSDYSI-αMeL-LDEK((2-[2-(2-Amino-ethoxy)-ethoxy]-acetyl)2-CO—(CH2)16—CO2H)AQ-Aib-EFI-(D-Glu)-YLIEGGPSSGAPPPS-NH2 (YXEGTXTSDYSIXLDEKAQXEFIXYLIEGGPSSGAPPPS; Aib, αMeF(2F), αMeL, D-Glu; lipidated K; amide; (2)..(2) Xaa at position 2 is Aib; (6)..(6) Xaa at position 6 is alpha-methyl-Phe(2F); (13)..(13) Xaa at position 13 is alpha-methyl-Leu; MOD_RES (17)..(17) Lys at position 17 is chemically modified by conjugation of the epsilon-amino group of the Lys side chain with (2-[2-(2-amino-ethoxy)-ethoxy]-acetyl)2-CO-(CH2)16-CO2H; (20)..(20) Xaa at position 20 is Aib; (24)..(24) Xaa at position 24 is D-Gl) [Peptide 214] | 3.98
Y-Aib-EGTFTSDYSILLDKIAQ-Aib-K((2-[2-(2-Amino-ethoxy)-ethoxy]-acetyl)2-(γGlu)-CO—(CH2)18—CO2H)FIEYLIEGGPSSGAPPPS-NH2 (Y[Aib]EGTFTSDYSILLDKIAQ[Aib]K([AEEA-AEEA-γGlu-C20 diacid])FIEYLIEGGPSSGAPPPS-NH2; N-terminus assumed; SMILES CC[C@H](C)[C@H](NC(=O)[C@H](CCCCN)NC(=O)[C@H](CC(=O)O)NC(=O)[C@H](CC(C)C)NC(=O)[C@H](CC(C)C)NC(=O)[C@@H](NC(=O)[C@H](CO)NC(=O)[C@H](Cc1ccc(O)cc1)NC(=O)[C@H](CC(=O)O)NC(=O)[C@H](CO)NC(=O)[C@@H](NC(=O)[C@H](Cc1ccccc1)NC(=O)[C@@H](NC(=O)CNC(=O)[C@H](CCC(=O)O)NC(=O)C(C)(C)NC(=O)[C@@H](N)Cc1ccc(O)cc1)[C@@H](C)O)[C@@H](C)O)[C@@H](C)CC)C(=O)N[C@@H](C)C(=O)N[C@@H](CCC(N)=O)C(=O)NC(C)(C)C(=O)N[C@@H](CCCCNC(=O)COCCOCCNC(=O)COCCOCCNC(=O)CC[C@H](NC(=O)CCCCCCCCCCCCCCCCCCC(=O)O)C(=O)O)C(=O)N[C@@H](Cc1ccccc1)C(=O)N[C@H](C(=O)N[C@@H](CCC(=O)O)C(=O)N[C@@H](Cc1ccc(O)cc1)C(=O)N[C@@H](CC(C)C)C(=O)N[C@H](C(=O)N[C@@H](CCC(=O)O)C(=O)NCC(=O)NCC(=O)N1CCC[C@H]1C(=O)N[C@@H](CO)C(=O)N[C@@H](CO)C(=O)NCC(=O)N[C@@H](C)C(=O)N1CCC[C@H]1C(=O)N1CCC[C@H]1C(=O)N1CCC[C@H]1C(=O)N[C@@H](CO)C(N)=O)[C@@H](C)CC)[C@@H](C)CC) [Peptide 32] | 6.18
Y-Aib-EGTFTSDYSILLDKIAQ-Aib-AFIEYLIEGGPSSGAPK((2-[2-(2-Amino-ethoxy)-ethoxy]-acetyl)2-(γGlu)-CO—(CH2)18—CO2H)PS-NH2 (Y[Aib]EGTFTSDYSILLDKIAQ[Aib]AFIEYLIEGGPSSGAPK([AEEA-AEEA-γGlu-C20 diacid])PS-NH2; N-terminus assumed; SMILES CC[C@H](C)[C@H](NC(=O)[C@H](CCCCN)NC(=O)[C@H](CC(=O)O)NC(=O)[C@H](CC(C)C)NC(=O)[C@H](CC(C)C)NC(=O)[C@@H](NC(=O)[C@H](CO)NC(=O)[C@H](Cc1ccc(O)cc1)NC(=O)[C@H](CC(=O)O)NC(=O)[C@H](CO)NC(=O)[C@@H](NC(=O)[C@H](Cc1ccccc1)NC(=O)[C@@H](NC(=O)CNC(=O)[C@H](CCC(=O)O)NC(=O)C(C)(C)NC(=O)[C@@H](N)Cc1ccc(O)cc1)[C@@H](C)O)[C@@H](C)O)[C@@H](C)CC)C(=O)N[C@@H](C)C(=O)N[C@@H](CCC(N)=O)C(=O)NC(C)(C)C(=O)N[C@@H](C)C(=O)N[C@@H](Cc1ccccc1)C(=O)N[C@H](C(=O)N[C@@H](CCC(=O)O)C(=O)N[C@@H](Cc1ccc(O)cc1)C(=O)N[C@@H](CC(C)C)C(=O)N[C@H](C(=O)N[C@@H](CCC(=O)O)C(=O)NCC(=O)NCC(=O)N1CCC[C@H]1C(=O)N[C@@H](CO)C(=O)N[C@@H](CO)C(=O)NCC(=O)N[C@@H](C)C(=O)N1CCC[C@H]1C(=O)N[C@@H](CCCCNC(=O)COCCOCCNC(=O)COCCOCCNC(=O)CC[C@H](NC(=O)CCCCCCCCCCCCCCCCCCC(=O)O)C(=O)O)C(=O)N1CCC[C@H]1C(=O)N[C@@H](CO)C(N)=O)[C@@H](C)CC)[C@@H](C)CC) [Peptide 46] | 8.54
Y-Aib-EGTFTSDYSILLDKIAQ-Aib-AFIEYLIEGGPSSGAPPK((2-[2-(2-Amino-ethoxy)-ethoxy]-acetyl)2-(γGlu)-CO—(CH2)18—CO2H)S-NH2 (Y[Aib]EGTFTSDYSILLDKIAQ[Aib]AFIEYLIEGGPSSGAPPK([AEEA-AEEA-γGlu-C20 diacid])S-NH2; N-terminus assumed; SMILES CC[C@H](C)[C@H](NC(=O)[C@H](CCCCN)NC(=O)[C@H](CC(=O)O)NC(=O)[C@H](CC(C)C)NC(=O)[C@H](CC(C)C)NC(=O)[C@@H](NC(=O)[C@H](CO)NC(=O)[C@H](Cc1ccc(O)cc1)NC(=O)[C@H](CC(=O)O)NC(=O)[C@H](CO)NC(=O)[C@@H](NC(=O)[C@H](Cc1ccccc1)NC(=O)[C@@H](NC(=O)CNC(=O)[C@H](CCC(=O)O)NC(=O)C(C)(C)NC(=O)[C@@H](N)Cc1ccc(O)cc1)[C@@H](C)O)[C@@H](C)O)[C@@H](C)CC)C(=O)N[C@@H](C)C(=O)N[C@@H](CCC(N)=O)C(=O)NC(C)(C)C(=O)N[C@@H](C)C(=O)N[C@@H](Cc1ccccc1)C(=O)N[C@H](C(=O)N[C@@H](CCC(=O)O)C(=O)N[C@@H](Cc1ccc(O)cc1)C(=O)N[C@@H](CC(C)C)C(=O)N[C@H](C(=O)N[C@@H](CCC(=O)O)C(=O)NCC(=O)NCC(=O)N1CCC[C@H]1C(=O)N[C@@H](CO)C(=O)N[C@@H](CO)C(=O)NCC(=O)N[C@@H](C)C(=O)N1CCC[C@H]1C(=O)N1CCC[C@H]1C(=O)N[C@@H](CCCCNC(=O)COCCOCCNC(=O)COCCOCCNC(=O)CC[C@H](NC(=O)CCCCCCCCCCCCCCCCCCC(=O)O)C(=O)O)C(=O)N[C@@H](CO)C(N)=O)[C@@H](C)CC)[C@@H](C)CC) [Peptide 47] | 7.35

Reference: US12295987B2, “Method of using a GIP/GLP1 co-agonist for diabetes” (Eli Lilly and Company, priority 2018, dated 2025)
